The values below come from paper PMC2111462.

This assay concerns the target purified rat skin collagen type I (rat) (UniProt P02454). The assay can be described thus: affinity chromatography.
UniProt P02454, sequence (P02454 152-1207, chain 1 of 2): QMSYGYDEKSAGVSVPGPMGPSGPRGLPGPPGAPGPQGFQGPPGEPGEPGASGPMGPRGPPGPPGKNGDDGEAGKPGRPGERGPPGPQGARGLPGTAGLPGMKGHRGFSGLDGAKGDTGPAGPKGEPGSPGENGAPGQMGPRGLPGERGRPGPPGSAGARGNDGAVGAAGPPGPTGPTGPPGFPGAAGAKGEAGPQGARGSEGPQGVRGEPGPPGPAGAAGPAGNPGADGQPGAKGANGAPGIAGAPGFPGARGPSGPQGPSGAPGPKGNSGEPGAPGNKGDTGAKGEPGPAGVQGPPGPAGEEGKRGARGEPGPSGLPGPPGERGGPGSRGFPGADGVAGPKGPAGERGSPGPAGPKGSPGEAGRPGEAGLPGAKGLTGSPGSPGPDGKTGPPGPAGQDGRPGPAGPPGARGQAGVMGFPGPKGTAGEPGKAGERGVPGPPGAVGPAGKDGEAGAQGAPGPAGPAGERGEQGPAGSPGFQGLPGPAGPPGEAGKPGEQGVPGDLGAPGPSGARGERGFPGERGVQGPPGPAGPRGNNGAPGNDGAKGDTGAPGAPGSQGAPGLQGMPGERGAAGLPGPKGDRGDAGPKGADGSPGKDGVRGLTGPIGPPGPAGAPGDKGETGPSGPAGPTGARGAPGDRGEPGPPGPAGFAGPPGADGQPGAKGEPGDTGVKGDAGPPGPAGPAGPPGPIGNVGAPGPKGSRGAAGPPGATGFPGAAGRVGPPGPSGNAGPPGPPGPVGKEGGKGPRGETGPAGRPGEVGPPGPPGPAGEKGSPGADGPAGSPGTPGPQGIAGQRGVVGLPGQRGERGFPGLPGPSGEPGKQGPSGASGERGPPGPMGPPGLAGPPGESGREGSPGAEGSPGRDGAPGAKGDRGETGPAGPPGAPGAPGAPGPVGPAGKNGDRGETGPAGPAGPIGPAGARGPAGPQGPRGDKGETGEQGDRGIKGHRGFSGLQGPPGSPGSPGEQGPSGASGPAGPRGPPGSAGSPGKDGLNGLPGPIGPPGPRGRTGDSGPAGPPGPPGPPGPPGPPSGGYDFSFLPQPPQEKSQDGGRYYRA
UniProt P02454, sequence (P02466 86-1125, chain 2 of 2, further chain): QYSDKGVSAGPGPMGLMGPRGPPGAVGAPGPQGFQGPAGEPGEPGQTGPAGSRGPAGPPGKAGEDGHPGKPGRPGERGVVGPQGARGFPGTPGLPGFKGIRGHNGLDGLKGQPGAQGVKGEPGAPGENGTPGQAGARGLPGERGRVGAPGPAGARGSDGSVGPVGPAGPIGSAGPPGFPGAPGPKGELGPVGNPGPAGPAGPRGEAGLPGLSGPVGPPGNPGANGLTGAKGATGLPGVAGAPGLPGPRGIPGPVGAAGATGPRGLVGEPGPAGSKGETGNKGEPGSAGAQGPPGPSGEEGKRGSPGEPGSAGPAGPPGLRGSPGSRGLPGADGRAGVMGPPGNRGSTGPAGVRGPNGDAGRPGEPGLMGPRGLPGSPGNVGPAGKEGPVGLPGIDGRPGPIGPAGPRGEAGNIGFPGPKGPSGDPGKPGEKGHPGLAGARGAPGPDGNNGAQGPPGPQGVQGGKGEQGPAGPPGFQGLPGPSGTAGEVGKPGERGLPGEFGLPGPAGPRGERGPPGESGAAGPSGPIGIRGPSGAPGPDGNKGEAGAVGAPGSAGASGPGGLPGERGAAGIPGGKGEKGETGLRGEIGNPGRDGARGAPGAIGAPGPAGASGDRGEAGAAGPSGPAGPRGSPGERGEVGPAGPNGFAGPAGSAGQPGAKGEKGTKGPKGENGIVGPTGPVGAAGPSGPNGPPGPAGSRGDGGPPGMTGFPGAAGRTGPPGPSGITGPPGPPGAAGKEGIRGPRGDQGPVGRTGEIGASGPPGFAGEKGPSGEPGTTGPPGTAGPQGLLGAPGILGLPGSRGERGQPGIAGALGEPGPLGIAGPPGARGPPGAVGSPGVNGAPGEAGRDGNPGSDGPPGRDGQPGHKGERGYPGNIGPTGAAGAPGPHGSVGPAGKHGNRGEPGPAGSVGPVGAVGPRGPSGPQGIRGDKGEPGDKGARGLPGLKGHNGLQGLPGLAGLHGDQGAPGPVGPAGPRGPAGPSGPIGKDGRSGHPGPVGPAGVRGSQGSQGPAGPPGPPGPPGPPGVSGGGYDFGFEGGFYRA

In turn, “human plasma fibronectin (natural protein)” returned a KBr concentration at which the bound fibronectin eluted of 1 M.
